Data from the DeepSol protein solubility set.

Test: soluble on expression in E. coli; label from the status in PepcDB or PDB records

| Sequence | soluble on expression in E. coli |
| --- | --- |
| MGHHHHHHSHMNDSDSTPPKKKMRKTENGMYACDLCDKIFQKSSSLLRHKYEHTGKRPHECGICKKAFKHKHHLIEHMRLHSGEKPYQCDKCGKRFSHSGSYSQHMNHRYSYCKREAEERDSTEQEEAGPEILSNEHVGARASP | soluble |
| MGHHHHHHSHAPNCTRKSTQSDLAFFRFPRDPARCQKWVENCRRADLEDKTPDQLNKHYRLCAKHFETSMICRTSPYRTVLRDNAIPTIFDLTSHLNNP | not soluble |
| QAILYVGHGSRVKKAQQEAAAFLEGCKAHISVPVQEISFLELQEPTIETGFEACVKQGATHIAVVPLLLLTAAHAKHDIPEEIVRVASRYPSVRISYGKPIGIDEEVVKAVYHRMKDIGVPYENARVVLIGRGSSDPDVKRDVTGIANLLQEMVPVKEVIPCFLTACGPNYKEVFSELEKDDGITTFIVPYLLFTGMLMNEIEREVQKLKAHNPNVYLSSYIGFHPHVKNAFLNRVRETAANSEGQFDFDGGSYASAAH | not soluble |
| MSRRSNRTINLPAPYLKRIWLDPSQVHDREAYPFCLPIFPDDFELSFDAAITIIVGENGTGKSTILEGIAALAGYDDAGGGKGYMPVDHSDAREKMGGQLSKALRASWLPKITNGWFFRAESFFSVARYLDKAARDAGQVGPDFLSHSHGEGFLRFFEERCQRQGIFIFDEPESALSPARQIEFLKLLRRMDDSRICQVIMATHSPMLMAYPNAKLLRLGKYGLEPVTVEETDHYRLMREFCDDPRGFVEATLAELEHHHHHH | soluble |
| MDRNPSEPERIDWKNPITWISYLYTSFVYYLWLISSHLPHLPQPQRITDDKSTEQITRDAGIPRTEIVTRGDATQTVRQVAGLGDPAPKDSSLLPPSSSFVYCNNCLTPHSSQRTCSPAYVSTLSRQKSLTLLKKLKKPSSSASSTTTTTSSTVSFRAPSRASSTISDASTIRPSELIAIVPSGSHVLLRVPKLDWKTESIRIKRTRMSDWMDAEQRDVMRQFDEVIRSEEEDERTSRKRNGIFKDGSVRSIESLESRSRSKETPVFVPPPPPPTDAMPYLPRLAELNKGTPDQEFGFNLHAERGRGHFIGTVDAGGIGEKAGLEAGQRIVGVNGQLIYPTTGHKEVVALIKKDTMKTTLLVASEDVDKYHKDHNIAYSWDNVERVDTRPVINVETHHHHEEVSVPKSNGYDVPPLNPHSIQVNEEREISKMTTTTRTETITNSNSAYQYKESSTAYDAYATPPVDSNDLMDEVFGRVNLPGVTMSSHTEVLPPTDDISSVSSLSSHRESAVDVPVSHQYVPSYATESHQKHEQHSQTHHHHHQHQQPSPLSNGSSHGYAASSTSGYDDDDIYHLSAREARERLRMKNRKHHLHEMSLNEKYQLVSNM | not soluble |
| MSLNNVIFSQKLYDTAQMIVDGCMGDADPACQTACPMHTDVKQYVRMAGEGNFQGALDLIRSKLFLPQTLGRICAHPCEASCRRNTEFGQPISVAGIKRFVAEKMDNQDHWDLNIAPLTNKHIAIVGAGPAGAQAAIELRRQGHEVTIYEKLDVYGGMMRVGIPEYRLPRDVIDFEYSYLAMLGIKTQFGVEIGKDISFDTLRSEHDAVILAHGAHVGSIIPLPGHDNDGVFSAVEYLKEISETRQFPRACKRVMVIGGGDVAMDCARSSWRIGASDVYQCSLESLESLPASQIEIDESLEEGVEFNAGWGPVAIEHENGKVTGITIKKVLSIFDEQGNFAPQYSEESKTISVDTVVFATGQIVADITDGALEQTRGGRYVVDKQTLASSLEDVFVAGDACGGNIVIEAMALGRKAAMSVERFLTARPLTEDREGHHHHHH | soluble |
| MAKQELSAREAVTEAKCYLNNAKEILREKGAKTEGYYRDSKYVKMAGDTAYSGVLFVLDHYFGEKAKGRKDVDWYRINLSKEDRKMLDSFTAVYEQLHL | not soluble |
| MGSDKIHHHHHHMRQLSINRLKEGDILGRTIYANDGRVLLGKGMALTKSYIDRLKTLGINILYIDDEVSKDIIVEDIISEEHRREAMASLDNAVQAVKVGKDFDGFNVKRNIDNIIQDILFQKDIFIGLTDMRTYDNQIFAHSVNVCVLSIVLGKALGLDRENLEGLAIGALFHDIGTVKLPKKLLSKREPFTPKEAALYQTHTNHGFDILRTKRELNLLSAHIAFQHHERLNGNGYPRKLEGDAIHQWAQIVGIANFYDNLVNDGPGHTRIPPYEACEILMGSAEKFFPKDLVITFLKHIAAYPTGCTVKLSTGETGIVVEQNKSLPMRPIIRVLVADQTLSRVQAKEYNLVEERTLFIESILE | not soluble |
| MGSDKIHHHHHHMNRLGKALPPLASLMPFEAAARLESFSRAADELHLTQAAISRQIRALEDDLGVALFERRNRGVFLTAAGREFGRTVSAALEGIAAQANALRQEVHDGVVVLFCQLCEAFYWVMPRLASLNRRHPELEVRLVTSTRPVVEHHDYFDVALQTSGRPSGSHALAFTASDEIFPICSPGYLAAQPRPITLASLPEHCLLHHEADPPDWFEWDSWLRAMGNFAPALGNGMVFDSYPLVLQAALAGHGIALGWRRSAEHLIQSGQLVRPLSMSLPLDNALSVYTRHGAQPRAETLALLDWLQREFRRDDQTTPA | not soluble |
| MSLKSVVNDTDGIVRVAKSVIPEIKHQDEVRVKIASSGLCGSDLPRIFKNGAHYYPITLGHEFSGYIDAVGSGVDDLHPGDAVACVPLLPCFTCPECLKGFYSQCAKYDFIGSRRDGGFAEYIVVKRKNVFALPTDMPIEDGAFIEPITVGLHAFHLAQGCENKNVIIIGAGTIGLLAIQCAVALGAKSVTAIDISSEKLALAKSFGAMQTFNSSEMSAPQMQSVLRELRFNQLILETAGVPQTVELAVEIAGPHAQLALVGTLHQDLHLTSATFGKILRKELTVIGSWMNYSSPWPGQEWETASRLLTERKLSLEPLIAHRGSFESFTQAVRDIARNAMQGKVLLIPEGHHHHHH | soluble |
| MGSSHHHHHHSSGLVPRGSHMKPVLTVYTYDSFAADWGPGPVVKKAFEADCNCELKLVALEDGVSLLNRLRMEGKNSKADVVLGLDNNLLDAASKTGLFAKSGVAADAVNVPGGWNNDTFVPFDYGYFAFVYDKNKLKNPPQSLKELVESDQNWRVIYQDPRTSTPGLGLLLWMQKVYGDDAPQAWQKLAKKTVTVTKGWSEAYGLFLKGESDLVLSYTTSPAYHILEEKKDNYAAANFSEGHYLQVEVAARTAASKQPELAQKFLQFMVSPAFQNAIPTGNWMYPVANVTLPAGFEKLTKPATTLEFTPAEVAAQRQAWISEWQRAVSR | soluble |
| MGSDKIHHHHHHMKKLHGFENEYLFVLPPVILNNFNFSKVIKLLYITDLGFYPKARYHFVHRDRGTEEWILIFCTHGKGVVKSATEEWLIESGSIVLLPPGKEHTYYAFDDDPWDIFWAHFNGDSVNEYIPQEALQGNGFLVINKTSTEDMQMLMSQFWQMIQALSAGFSYQSVFYSSQVLGATLAYVSLQSVLPHDSYTMGNEYITKAVKYIYDHFEEKVSLSTLTEVLDVSKSYLSRIFRQTVGTSVNQFILDIKMKQACYYLKDTNLAVHQIASRLGYDDPYYFSRIFKKVVGSSPRVFRKQEKNRL | not soluble |
| MDDPNRIVSASRRPKALIRLLDSQQIEVVLHSRLSVEDVLRLVAEKVDLSFPDSQYFCLGFSDNLNNFHWLDGSVILYDLVASTSNPKGTLTLSHHVRFFVDTIYEVQCASTAKLFFFDIHNQLARHELLVTSEDYFELVAILVSVFVPDCQEHTTAEAISRIMPMSHPPYILLKTDQSEVERRVFEKFRYYRRLPVGTGMISFIKLAEKSESYGYRMYEALNENNDKCILSIGYKGIYIYRRSRHQNLITPYLAYPWRVIDNLYYRDKKFSIEIREPKNSLHSNSSIGTMPSAKIGDGSTSSLPMSSAKPMSTQTSEPQLPDVPEPNESLHNKTIDEFQKDQEKCDRLKARKAELEMRLRQKMQELKDVCVEEGDITGEMPVEINDVVLPGDDFPRLKRRVGTAYSIPDELIKADKADKMSQLETDVELHRRIVAAASRLATDKNTNKSVRKKRQKDLQAARLRLNRLEQGLQQMRHSASKPDISSLTSDSSNSWTASNSSGPMLTMAMTKSCPTTPRGSVPDLRNGLDDEKDEFDENVEDRVSRRAPSAISRHSLSQRYSGVSSSSTSSGSDSMGLGLPPRPTSRKSQQQQTTPFDDQLDNPMICEIPPPPSSAAAHPLLVTNLLSRGKTTGCRVLTEYYPVLKRIRTNY | not soluble |
| GSHMIASLSDSVSNAREERMALRQEQEQLQSRIQSLMQRAPVWLAAQNSLNQLSEQCGEEFTSSQDVTEYLQQLLEREREAIVERDEVGARKNAVDEEIERLSQPGGSEDQRLNALAERFGGVLLSEIYDDVSLEDAPYFSALYGPSRHAIVVPDLSQVTEHLEGLTDCPEDLYLIEGDPQSFDDSVFSVDELEKAVVVKIADRQWRYSRFPEVPLFGRAARESRIESLHAEREVLSERFATLSFDVQKTQRLHQAFSRFIGSHLAVAFESDPEAEIRQLNSRRVELERALSNHENDNQQQR | soluble |
| MAKLDFHIVKRIREQIANGGTRVALKHKVAGAWQGITWEQFGQQVDTLSLALLAQGLGVQDKIGIFSNNMPQWTIADFAALQLRGVTVPIYPTNTAAQSAYIIDNADVKVLFVGEQPQFDAAVSIFEQCEQLELIVAMSDDIELGDHDFAISWKDFVAKGDTSHQAELDERLEQAKVDDLLTLIYTSGTTGQPKGVMLDYGNIAAQLEGHDQRLSLSQDDVSLCFLPLSHVFERAWTFYVLYKGATNCYLQDTMQVRDALSEVRPTVMCAVPRFYEKIFSAIHEKVSRAPIHRKIMFTWAVNMGAKMALCHQEKRKPSMMLRKAHA | not soluble |
| MNRSNAQTERGRRWYVGDRLHVDVRGLPCPEPLVTVLRLIDGSEVGDGLTALVSQEPLLLYPELDARGCRYRMVTPAGDTLLRDGEVVLEIERSK | not soluble |
| GMHSALQLRSRIKSSGELELSLDSIDTPHPGPDEVLIRIEASPLNPSDLGLLFGAADMSTAKASGTAERPIVTARVPEGAMRSMAGRLDASMPVGNEGAGVVVEAGSSPAAQALMGKTVAAIGGAMYSQYRCIPADQCLVLPEGATPADGASSFVNPLTALGMVETMRLEGHSALVHTAAASNLGQMLNQICLKDGIKLVNIVRKQEQADLLKAQGAVHVCNAASPTFMQDLTEALVSTGATIAFDATGGGKLGGQILTCMEAALNKSAREYSRYGSTTHKQVYLYGGLDTSPTEFNRNFGMAWGMGGWLLFPFLQKIGRERANALKQRVVAELKTTFASHYSKEISLAEVLDLDMIAVYNKRATGEKYLINPNKGLAG | soluble |
| MFKIGSVLKQIRQELNYHQIDLYSGIMSKSVYIKVEADSRPISVEELSKFSERLGVNFFEILNRAGMNTKSVNETGKEKLLISKIFTNPDLFDKNFQRIEPKRLTSLQYFSIYLGYISIAHHYNIEVPTFNKTITSDLKHLYDKRTTFFGIDCEIVSNLLNVLPYEEVSSIIKPMYPIVDSFGKDYDLTIQTVLKNALTISIMNRNLKEAQYYINQFEHLKTIKNISINGYYDLEINYLKQIYQFLTDKNIDSYLNAVNIINIFKIIGKEDIHRSLVEELTKISAKEKFTPPKEVTMYYENYVAIENNPIPEIKEQS | soluble |
| MSIKVDMSLDCKGLACPMPIVKTKKAIEGLASGQVIEVKATDKGSTVDIKSWANKVGHQYIGTKHEGDILMHYVRKAHEHEVNEVVKYPHTITNTELEEILVSGEECTVLDVREAAEFAFGHIPSATSMPLGELESLVLDKTKQIYVVCRTGNRSDVACQMLKEKGYTNVKNVIPGMIEWQGNIENLEHHHHHH | soluble |
| MNQQKSLTLIVALTTSYGIGRSNSLPWKLKKEISYFKRVTSFVPTFDSFESMNVVLMGRKTWESIPLQFRPLKGRINVVITRNESLDLGNGIHSAKSLDHALELLYRTYGSESSVQINRIFVIGGAQLYKAAMDHPKLDRIMATIIYKDIHCDVFFPLKFRDKEWSSVWKKEKHSDLESWVGTKVPHGKINEDGFDYEFEMWTRDL | soluble |
